Measurements as given in US20200385465A1 (SHANGHAI NOVAMAB BIOPHARMACEUTICALS, published 2020).
Blank lines part the entries; values can stand above or below the molecule they belong to.

Legend:
[1] = biological target: T1, human full-length CD47 protein (human, UniProt Q08722 19-323); experiment: flow cytometry blocking assay, antibody together with hSIRPa (ECD)-Fc-Biotin on CD47 stable cells, SA-PE detection
T1 construct: whole, on cells; also called CD47 stably transferred cells; CD47 on the surface of erythrocyte

[2] = biological target: T1, human full-length CD47 protein; experiment: flow cytometry blocking assay, antibody together with 5 ug hSIRPa (ECD)-Fc-Biotin on hCD47 stable cells, SA-PE detection
[3] = biological target: T2, CD47 (rat), coated antigen protein (rat, UniProt P97829 19-140, limits assumed); experiment: ELISA, coated antigen, anti-HA and alkaline phosphatase detection
T2 construct: also called rat CD47; murine-derived CD47
T2 sequence (looked up): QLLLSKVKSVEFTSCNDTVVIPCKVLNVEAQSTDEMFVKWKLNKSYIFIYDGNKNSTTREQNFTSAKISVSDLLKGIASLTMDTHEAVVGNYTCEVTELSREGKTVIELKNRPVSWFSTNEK
Protocol: (§1) The specificity of the single domain antibody was determined based on the absorption value.

[4] = biological target: T3, CD47 (mouse), coated antigen protein (mouse, UniProt Q61735 19-140, limits assumed); experiment: as above
T3 construct: also called mouse CD47; murine-derived CD47
T3 sequence (looked up): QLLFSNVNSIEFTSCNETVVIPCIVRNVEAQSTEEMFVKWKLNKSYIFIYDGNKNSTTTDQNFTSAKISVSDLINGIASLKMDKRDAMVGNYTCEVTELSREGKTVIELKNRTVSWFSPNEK
Protocol: as §1

[5] = biological target: T1, human full-length CD47 protein; experiment: competition flow cytometry on CD47 stably transfected cells, antibody titrated against 5 µg hSIRPa (ECD)-Fc-Biotin
Protocol: 100 uL was added in each sample, and a negative control (hIgG4) was set at the same time. […] (2) The cells were washed twice with PBS, SA-PE of eBioscience was added. It was incubated for 20 min at 4° C., and the cells were washed twice with PBS and then detected by flow cytometry (BD FACS Calibur), using graphpad prism 6 software for data processing.

- percent of cells positive for SIRPa-biotin (quadrant Q2) in the presence of the antibody [1]: 97.3%
- percent of cells positive for SIRPa-biotin (quadrant Q2) in the presence of the antibody at 1ug/ml [2]: 97.2%
Molecule: negative control antibody

- binding result [3]: no binding
- binding result [4]: no binding
B1: humanized CD47 single domain antibody (Nb1902) expressed from E. coli vector pMECS (VHH)
VHH: QVQLQESGGGLVQPGGSLRLSCAASGYAYTSDCMGWFRQTPGKGLEGVALIYTPGNSTNYADSVKGRFTISQDNSKSTVYLQMNSLRAEDTAMYYCAARRGACSLRLPFFYWGQGTLVTVSS
notes: also called humanized single domain antibody; not shown: C-terminal tag stretch from the pMECS vector (the HA tag used for detection and any other vector-encoded tag)

- IC50 [5]: 12.3 µg/mL
B2: control antibody B6H12 (antibody)
chain: EVQLVESGGDLVKPGGSLKLSCAASGFTFSGYGMSWVRQTPDKRLEWVATITSGGTYTYYPDSVKGRFTISRDNAKNTLYLQIDSLKSEDTAIYFCARSLAGNAMDYWGQGTSVTVSSGGGGSGGGGSGGGGSDIVMTQSPATLSVTPGDRVSLSCRASQTISDYLHWYQQKSHESPRLLIKFASQSISGIPSRFSGSGSGSDFTLSINSVEPEDVGVYYCQNGHGFPRTFGGGTKLEIK
